Source: the DeepSol protein solubility set

Assay: soluble on expression in E. coli; label from the status in PepcDB or PDB records

Sequence | soluble on expression in E. coli
MSLEGFIEDASVSLGLRNLYFNRDFRQPGAAQSKQEEWAQGFLLQAKSGYTQGTLGLGVELIGQLGLKLDSSPDRAGSGLLPRHADGRAADDYARLGVAPKLKLSNTELKLGELLPELPILLRNDGRLLPQTFQGGMLTSREIAGLTLHGGQMRSLSQRNSSDHQDLSVDGRGGAFSDRFDYLGAEYRFNAERSQVGLWQARLQDIYRQDYYSLSHKQSFGGWRLGASVGLFDTRDEGAAKLGELENRALTGFFSATRGGHSLGAGYQRMYGDDGMLYIAGTSTPLVNDIQVRNFTSAGERSWQLRYDYDFVALGIPGLTAMARYASGAHARTKAMDDGRAWERDVDVAYVIQSGPLKNLGLRWRNAMLRSNHAADVDENRLILSYSLPLLEGHHHHHH | soluble
YGAWAAQELQAKLAEIGAPIQGNREELVERLQSYTRQTGIVLNRP | soluble
MGSDKIHHHHHHMFSARLKAIAQPVLADIENHPFVRGIQAGAVPAAALMVYVEQDTCFLDAFAKVYAGALSKCTTKDQMRFFEEQIRYTLNDEAGAHQILCDIAGQKLSDHQHAKQRPITYLYNEHLFNALRTGDLIDLIAAMLPCPWTYTEISQQIVDGAAPDNPFLPWIEFYQPQPGQIDGSMVKTLFGMVDELAIGLSEERQHEIEQRFLRSCELEYEFWEQAYYQKDWKYKN | not soluble
MSLINLWPLLLPAAAWSGWWLANRSNSNKDAHVHNRLSREYVVGLNYLLNEQSDKAVDVFIKLLEVDSDTVETHLALGSLFRRRGEVDRAIRIHQNLIARPQLSIQQRKEALMALGQDYMSAGVFDRAERIFLEVVELGGSRDTSSLQGLLAIYQQEKAWEKALDIIKKLEISTGASFHNQAAHYYCEMASQALKINAMDRAIYCIKQAMNVDPESVRASLMNATIEIKEGRYKQAIRSLKRVPQQDAEFLTEIIEPLVLCHKELDSMPDCIHYLEQTLEKHPRASVIFVIADYLRQNKGMDIAIDFVADNLSKHPSIRGLNRLIYWHLESAHGKVREKLQMLYDITSKFLDNKPIYRCGHCGFGGKHLHWHCPSCKQWGRMKPIHGLEGDEGHHHHHH | not soluble
MSLAKQDELVFLPLGGVGEIGMNLALYGYGPPEHRQWIMVDCGVTFPGPDLPGVDLVLPDIRFLASERKNLKAIIITHAHEDHYGALADLWPGLNVPVYASGFTAGLLEAKRNFEKAKIGEVPVTPFKAGDTINVGPFSIEGVAVNHSIPEPMSLMIRTPVGNVIHTGDWKIDHEPSLGPLTDETRFRQLGDEGVLALMCDSTNALRDGVSPSEKDVSESLRKIIENAEGRVAITTFSSNVGRIRTVAEAAEAAGREVLLLGSSLKRVVDVAQDVGLMEGVKPFISEEEYGYIPRDKVVVILTGSQGEARAALAKLSRDEMRNVAFAAGDIVVFSSRAIPGNEKAIQDIKNGLVEQGVHIITDTEALVHVSGHPRRNELQRMYEWTRPKIVVPVHGEATHLTAHKELAEQSGIALVPRVRNGDILRLAPGEGHHHHHH | soluble
SLDARLWLERIRELPIPDGIRIMNVCGGHERSISMAGLRTALPPAIRLIPGPGCPVCICPEEDIYQAIRLGLEGEAVVATFGDMLRVPVNLGRQAVRTLEQAKAAGADIRPIASPIEARIIAEKAAGKPVVLFAVGFETTMAPVAALMAEGLPDNLYILCSGRLTWPAVKLLLDSDECVLDALVAPGHVATVMGPEEWAFVADDYRLPVAIAGFTPASLLRAIHSTIVQWLEETPRLDNCYPEAVKPGGNPKAREFLDRSFDVAAGNWRGIGPIAASAYALKPGFAAHDARLHFPDYDAGDRRHAGEMPAGCDCARVVLGRIQPDECRIYGKPCSPRSPVGPCMVSDEGACRIWWAAGVRKDSAAA | not soluble
SMALYRVVLLGDPGVGKTSLASLFAGKQERDLHEQLGEDVYERTLTVDGEDTTLVVVDTWEAEKLDKSWSQESCLQGGSAYVIVYSIADRGSFESASELRIQLRRTHQADHVPIILVGNKADLARCREVSVEEGRACAVVFDCKFIETSATLQHNVAELFEGVVRQLRLRRRDSA | soluble
MVLIKEFRVVLPCSVQEYQVGQLYSVAEASKNETGGGEGIEVLKNEPYEKDGEKGQYTHKIYHLKSKVPAFVRMIAPEGSLVFHEKAWNAYPYCRTIVTNEYMKDDFFIKIETWHKPDLGTLENVHGLDPNTWKTVEIVHIDIADRSQVEPADYKADEDPALFQSVKTKRGPLGPNWKKELANSPDCPQMCAYKLVTIKFKWWGLQSKVENFIQKQEKRIFTNFHRQLFCWIDKWIDLTMEDIRRMEDETQKELETMRKRGSVRGTSAADV | soluble
ETVLADRFERLVELVTMMGDQGELPIAMALANVVPCSQWDELARVLVTLFDSRHLLYQLLWNMFSKEVELADSMQTLFRGNSLASKIMTFCFKVYGATYLQKLLDPLLRIVITSSDWQHVSFEVDPTRLEPSESLEENQRNLLQMTEKFFHAIISSSSEFPPQLRSVCHCLYQVVSQRFPQNSIGAVGSAMFLRFINPAIVSPYEAGILDKKPPPIIERGLKLMSKILQSIANHVLFTKEEHMRPFNDFVKSNFDAARRFFLDIASDCPTSDAVNHSLSFISDGNVLALHRLLWNNQEKIGQYLSSNRDHKAVGRRPFDKMATLLAYLGPPEH | soluble
MGSDKIHHHHHHMHTVAVERAARYDPSEVAEAMDRALASLGGMDTFVRPGERVLIKPNMLAAKAPERAVTTHPEVLRAVIRLVRKAGGIPLVGDSPGIGGFRAVAEKSGMAAVVREAGAELVPFDEAVAVPGSGLFRRMDVARPYLEADRLINLPKLKTHEMMTMTCAVKNLFGAVVGTAKAGWHLKAGADRELFARLLLEIYLLRPPDLTIVDGIVAMEGDGPGSGDPRPMGLILAGANAVAVDVVAAELAGIPKQLLWVERAAERLGIDGWDRSRIATVGLPPDDARVPDFRLPHLSDVQFGIPGFLKNRLRHHLTARPVPNPEGCHLCGACLDACPPRAISVRDGRLHFDYHACIRCFCCRELCPDGSLGVRDGVLLKLLKKFKE | not soluble
TEPTIHKGLAGVTADVTAISKVNSDTNSLLYRGYPVQELAAKCSFEQVAYLLWNSELPNDSELKAFVNFERSHRKLDENVKGAIDLLSTACHPMDVARTAVSVLGANHARAQDSSPEANLEKAMSLLATFPSVVAYDQRRRRGEELIEPREDLDYSANFLWMTFGEEAAPEVVEAFNVSMILYAEHSFNASTFTARVITSTLADLHSAVTGAIGALKGPLHGGANEAVMHTFEEIGIRKDESLDEAATRSKAWMVDALAQKKKVMGFGHRVYKNGDSRVPTMKSALDAMIKHYDRPEMLGLYNGLEAAMEEAKQIKPNLDYPAGPTYNLMGFDTEMFTPLFIAARITGWTAHIMEQVADNALIRPLSEYNGPEQRQVP | soluble
MSTEYGCQVTNKFGLPSDDDDEYDDPRELIQKVSQIAAKKKEEKSVKPAQPVKPAAAPVAATKTDGAAGRGRGGRGRGRGGAGRPRDGERVSNENGDRPQGENRRGGPRRGGERGAARPAGRGGRGGFTRENREGEEPKQEVSFEDGQDTRAPRRRGGFTLGGGPSGGRGGGRGGRGRQFDRQSGSDRTGVRSFDKKDGHGKGNWGDQKDELAGETENIAPEGAESTEPEVPREKTAEELAYEAELAVLAKQKTLKEFKAAAKADAPKFNTRKAGEGAADTFGKLVPIKKEVIPDREEDEVVVIHKAPRKQVLDISITFRNDRPERERNDRSERPQRGGPRGGGRGGGRGGQRQGGHGGRNNTPFNASDDAFPALGAK | not soluble
MEFVVEEGKLVNEDCSTLVLPALSIGNVGQLAVDLLVSSTGAERVGYLDDPNLLPCVGNDAYGPLPCGEIALPLEVYESSSIATTLAQQRSPVAKGMMIKFAENIANFAASSGKKHIIVLSSLDFQRLHNLDMSRGPQVYYLSNAESDGRDDHCERLGFGRLHEYDSEGRCWKYLSSVFEKNSVEELALPSEDELEDIDYYPSLPFAALFSAFKARGLKMTCLLCYCSEGDNIPEAFLLAEASSKLMGLTPDKFHGEEGGKWQIPYSWKSMYGAPPDMSMF | soluble
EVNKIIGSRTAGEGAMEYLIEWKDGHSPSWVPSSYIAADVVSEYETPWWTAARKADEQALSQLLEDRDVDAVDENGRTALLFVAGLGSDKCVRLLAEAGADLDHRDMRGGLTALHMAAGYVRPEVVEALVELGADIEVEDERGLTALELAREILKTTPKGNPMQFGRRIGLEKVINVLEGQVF | soluble
